In patent US20220289850 (published 2022):
Where a chain is given by its changes, count along the chain named.

Molecular target: T1, cynomolgus integrin avb8 (cynomolgus)
T1 chain 1: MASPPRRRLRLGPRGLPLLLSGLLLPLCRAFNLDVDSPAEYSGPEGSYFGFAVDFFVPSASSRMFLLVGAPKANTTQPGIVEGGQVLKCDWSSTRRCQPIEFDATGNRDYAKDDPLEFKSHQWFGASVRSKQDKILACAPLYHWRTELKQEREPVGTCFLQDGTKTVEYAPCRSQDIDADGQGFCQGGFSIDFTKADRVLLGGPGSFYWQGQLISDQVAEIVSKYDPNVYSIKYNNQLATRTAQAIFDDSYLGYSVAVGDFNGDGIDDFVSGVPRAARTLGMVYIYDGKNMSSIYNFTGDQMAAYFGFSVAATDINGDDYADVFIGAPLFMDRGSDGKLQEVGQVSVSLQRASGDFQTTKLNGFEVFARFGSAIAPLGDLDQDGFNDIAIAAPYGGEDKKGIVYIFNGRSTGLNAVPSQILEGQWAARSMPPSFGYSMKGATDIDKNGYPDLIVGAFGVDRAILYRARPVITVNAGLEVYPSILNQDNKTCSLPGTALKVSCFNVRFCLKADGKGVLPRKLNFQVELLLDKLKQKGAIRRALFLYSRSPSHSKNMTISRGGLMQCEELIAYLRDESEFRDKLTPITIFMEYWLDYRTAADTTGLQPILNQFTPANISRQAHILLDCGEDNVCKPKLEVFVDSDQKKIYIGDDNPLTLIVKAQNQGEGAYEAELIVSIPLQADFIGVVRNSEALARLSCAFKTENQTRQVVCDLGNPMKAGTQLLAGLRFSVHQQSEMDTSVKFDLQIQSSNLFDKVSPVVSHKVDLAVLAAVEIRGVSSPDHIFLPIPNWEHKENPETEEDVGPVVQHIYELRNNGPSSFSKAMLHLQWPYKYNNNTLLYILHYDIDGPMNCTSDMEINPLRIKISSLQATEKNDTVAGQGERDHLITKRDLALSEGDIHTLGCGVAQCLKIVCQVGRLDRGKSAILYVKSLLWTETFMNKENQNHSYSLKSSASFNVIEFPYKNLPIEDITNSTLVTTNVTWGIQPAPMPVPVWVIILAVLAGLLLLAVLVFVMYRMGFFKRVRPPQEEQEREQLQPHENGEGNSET
T1 chain 2: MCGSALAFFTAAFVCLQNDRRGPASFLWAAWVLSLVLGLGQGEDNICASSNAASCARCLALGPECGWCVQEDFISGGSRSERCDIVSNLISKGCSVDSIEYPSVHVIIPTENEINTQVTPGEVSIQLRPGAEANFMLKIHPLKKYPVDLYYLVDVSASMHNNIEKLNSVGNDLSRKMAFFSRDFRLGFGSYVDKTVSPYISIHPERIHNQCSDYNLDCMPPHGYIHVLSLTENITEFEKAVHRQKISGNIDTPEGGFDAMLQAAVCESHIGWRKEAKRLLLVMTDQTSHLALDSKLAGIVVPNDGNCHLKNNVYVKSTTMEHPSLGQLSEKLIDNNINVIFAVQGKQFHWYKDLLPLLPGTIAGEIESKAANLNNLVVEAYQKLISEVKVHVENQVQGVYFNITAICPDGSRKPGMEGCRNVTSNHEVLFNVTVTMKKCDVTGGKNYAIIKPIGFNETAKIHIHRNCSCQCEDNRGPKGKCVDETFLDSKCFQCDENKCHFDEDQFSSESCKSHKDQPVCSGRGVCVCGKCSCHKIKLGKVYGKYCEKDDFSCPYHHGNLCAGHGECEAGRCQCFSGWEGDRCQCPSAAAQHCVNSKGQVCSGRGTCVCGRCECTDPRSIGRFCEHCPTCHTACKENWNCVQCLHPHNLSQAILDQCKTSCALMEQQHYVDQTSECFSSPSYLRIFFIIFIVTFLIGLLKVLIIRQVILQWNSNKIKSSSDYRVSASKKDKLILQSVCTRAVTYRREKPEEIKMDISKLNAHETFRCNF
Experiment: SPR 25C

B1: Mouse hybridoma ADWA-11 Fab (antibody, V domains shown)
VH: EVQLQQSGAELVRPGAFVKLSCKASGFNIKDYYMNWVLQRPEQGLEWIGWIDPDNGNTIYDPKFQGKASITADTSSNTAYLQLSSLTSEDTAVYYCARRLLMDYWGQGTSVTVSS
VL: DIVMTQAAPSVPVTPGESVSISCRSTKSLLHFNGNTYLFWFLQRPGQSPQRLIYYMSNLASGVPDRFSGRGSGTDFTLRISRVEAEDVGVYYCMQSLEYPFTFGTGTKLEIK
  Kd: 0.507 nM

B2: ADWA11 VH05/VK01 (VH05-2_VK01) Fab (antibody, V domains shown)
VH: EVQLVESGGGLVQPGGSLRLSCAASGFNIKDYYMNWVRQAPGKGLEWVGWIDPDNGNTIYDPKFQGRFTISADTSKNSAYLQMNSLRAEDTAVYYCARRLLMDYWGQGTLVTVSS
VL: DIQMTQSPSSLSASVGDRVTITCRSTKSLLHFNGNTYLFWYQQKPGKAPKRLIYYMSNLASGVPSRFSGSGSGTDFTLTISSLQPEDFATYYCMQSLEYPFTFGQGTKVEIK
  Kd: < 0.1 nM

B3: ADWA11 2.4 Fab (antibody, V domains shown)
VH: B2 VH with N55Q, D61E
VL: B2 VL with L30S, N58S, M94Q, Q105G
  Kd: < 0.2 nM
